Reference: publication PMC6454211 (Biochemistry, 2018)

Target: Calmodulin (human full-length CaM, Ca2+-loaded) (human, UniProt P0DP23 1-149)
Test: cross-linking

B1: p85α cSH2 domain V663K/V667N/L687F/L691V/L696N (residues 614-724) (domain or fragment)
chain: EDLPHHDEKTWNVGSSNRNKAENLLRGKRDGTFLVRESSKQGCYACSVVKDGENKHCVINKTATGYGFAEPYNFYSSVKELVNHYQHTSLVQHNDSLNVTLAYPVYAQQRR
- binding result: binds
